Drawing on US20220267414A1, this text covers CPV-2b HI (hemagglutination inhibition) and Kd for three molecules.

Bounds are passed on as bounds.

Test [1] addresses canine parvovirus CPV-2b (canine parvovirus CPV-2b). The test is described as follows: cell-based or functional assay.
Test [2] deals with recombinant canine parvovirus CPV2b capsid (Advanced ImmunoChemical Inc Cat #8-CPV) (canine parvovirus CPV2b). The test is described as follows: BLI (Octet), biotinylated antibody on streptavidin tips, VLP at 40 µg/mL as analyte, 1:1 fit. (In general: Biolayer interferometry detects binding as a change in optical thickness at a sensor tip.)

On to irrelevant canine IgG (antibody), for which the CPV-2b HI (hemagglutination inhibition) in test [1] was less than 20.

B1: Chimeric Canine Mab B v2 (antibody, V domains shown)
VH: QVQLKESGPGLVQPSETLSLTCTVSGFSLTSYGVSWVRQPPGKGLEWMGTMWNDGDTDYNSALRSKLSISRDTSKSQVFLKMNSLQTEDTAIYYCARSQLPGYNLRGWFVYWGQGTLVIVSA
VL: DIQMTQSPPVLSASVGDRVTLSCKASHNINKNLEWYQQKLGEAPKLLIYYANNLQTGIPSRFSGSGSGTDYTLTISSLQPEDVATYYCYQYNSGHTFGAGTKLEIKR
One may read the Kd as the free concentration of one partner at which half of the binding sites on the other are occupied at equilibrium, for simple one-to-one binding. With B1, the Kd in test [2] turned out to be 0.00938 nM.

B2: Chimeric Canine Mab A v2 (antibody)
heavy: QVQLKESGPGLVAPSQTLSLTCTVSGFSLSSYHVHWVRQPPGKGLEWLGVMWNDGDTSYNLALNSRLSISRDTSKSQVFFKMSSLQTEDTATYYCARPELPGLTYGVWFPYWGQGTLVTVSAASTTAPSVFPLAPSCGSTSGSTVALACLVSGYFPEPVTVSWNSGSLTSGVHTFPSVLQSSGLYSLSSMVTVPSSRWPSETFTCNVAHPASKTKVDKPVPKRENGRVPRPPDCPKCPAPEMLGGPSVFIFPPKPKDTLLIARTPEVTCVVVDLDPEDPEVQISWFVDGKQMQTAKTQPREEQFNGTYRVVSVLPIGHQDWLKGKQFTCKVNNKALPSPIERTISKARGQAHQPSVYVLPPSREELSKNTVSLTCLIKDFFPPDIDVEWQSNGQQEPESKYRTTPPQLDEDGSYFLYSKLSVDKSRWQRGDTFICAVMHEALHNHYTQESLSHSPGK
light: DIVMTQTPASMSISVGDRVTMNCKASQNVDSNVDWYQQKTGQSPNLLIYKASNRNTGVPDRFTGSGSGTDFTFTISNMQAEDLAVYYCMQSTSYPLTFGSGTKLEIKRNDAQPAVYLFQPSPDQLHTGSASVVCLLNSFYPKDINVKWKVDGVIQDTGIQESVTEQDKDSTYSLSSTLTMSSTEYLSHELYSCEITHKSLPSTLIKSFQRSECQRVD
In the case of B2, the Kd in test [2] worked out at 0.0978 nM.
